Measured values from patent US20220251562.

Experiments:
[1] = biological target: CD3 epsilon/gamma heterodimer (Homo sapiens) (UniProt P07766+P09693); assay: SPR; details: steady state
[2] = biological target: CD3 epsilon/delta heterodimer (Homo sapiens) (UniProt P07766+P04234); assay: SPR; details: kinetic
[3] = system: CD3 complex on Jurkat cells (Homo sapiens); assay: flow; details: apparent
[4] = biological target: CD3 epsilon/delta heterodimer (Macaca fascicularis) (UniProt Q95LI5+Q95LI8); assay: SPR; details: steady state
CD3 epsilon/delta heterodimer (Macaca fascicularis), sequence (Q95LI5 22-117, stated change not applied, chain 1 of 2): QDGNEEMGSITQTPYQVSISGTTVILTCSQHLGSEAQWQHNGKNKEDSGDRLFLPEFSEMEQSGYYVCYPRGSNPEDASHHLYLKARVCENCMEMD
CD3 epsilon/delta heterodimer (Macaca fascicularis), sequence (Q95LI8 22-105, stated change not applied, chain 2 of 2): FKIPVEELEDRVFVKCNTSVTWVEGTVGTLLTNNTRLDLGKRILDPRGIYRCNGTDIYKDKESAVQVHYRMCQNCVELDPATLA

[5] = biological target: T1, CD3 epsilon/delta heterodimer (Mus musculus) (UniProt P22646+P04235); assay: SPR; details: steady state
T1 sequence 1: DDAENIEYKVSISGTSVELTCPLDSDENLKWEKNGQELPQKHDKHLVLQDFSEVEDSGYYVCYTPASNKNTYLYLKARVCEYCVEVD
T1 sequence 2: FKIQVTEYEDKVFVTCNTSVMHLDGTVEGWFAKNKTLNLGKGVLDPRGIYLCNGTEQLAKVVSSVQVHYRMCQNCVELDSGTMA

CD3 epsilon/gamma heterodimer (Homo sapiens), sequence (P07766 23-126, chain 1 of 2): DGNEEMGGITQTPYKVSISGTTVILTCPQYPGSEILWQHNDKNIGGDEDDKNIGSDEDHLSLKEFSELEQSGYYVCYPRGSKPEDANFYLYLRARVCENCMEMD
CD3 epsilon/gamma heterodimer (Homo sapiens), sequence (P09693 23-116, chain 2 of 2): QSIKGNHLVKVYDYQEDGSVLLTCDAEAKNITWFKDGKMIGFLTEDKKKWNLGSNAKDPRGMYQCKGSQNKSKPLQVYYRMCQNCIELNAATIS
CD3 epsilon/delta heterodimer (Homo sapiens), sequence (P07766 23-126, stated change not applied, chain 1 of 2): as the sequence (P07766 23-126, chain 1 of 2) above
CD3 epsilon/delta heterodimer (Homo sapiens), sequence (P04234 22-105, stated change not applied, chain 2 of 2): as the sequence (Q95LI8 22-105, stated change not applied, chain 2 of 2) above, with V5I, K15N, V20I, T32S, N33D, N34I, A64T, N74S, L83V counted along it

Sequence: GGGTTTGGCATCGGGCTGGC [CELTIC_core_29]
- Kd ([1]; _ is abasic C3 spacer at position 16, 5'-HEG, kinetic 5.4 pM (Table 8)): 205 nM
- Kd ([2]; _ is abasic C3 spacer at position 16, 5'-HEG): 0.014 nM

Sequence: GGGTTTGGCACGGGCCTGGC [CELTIC_core_24]
- Kd ([1]; _ is abasic C3 spacer at position 11, 5'-HEG, kinetic 67 pM (Table 8)): 218 nM
- Kd ([2]; _ is abasic C3 spacer at position 11, 5'-HEG): 0.041 nM

Sequence: GGGTTTGGCACGGGCCTGGC [CELTIC_core_24t]
- Kd ([1]; _ is abasic C3 spacer at position 11, 5'-HEG, 3'-3' dT, kinetic 238 pM (Table 8)): 233 nM
- Kd ([2]; _ is abasic C3 spacer at position 11, 5'-HEG, 3'-3' dT): 0.006 nM

Sequence: GGGTTTGGCACGGGCTGGC [CELTIC_core_42 5'-tetrazine]
- Kd ([3]; _ is abasic C3 spacer (positions 11 and 16), HEG, 5'-tetrazine-PEG5, specificity retained vs Ramos): < 25 nM

Sequence: GGGTTTGGCACGGGCTGGC [CELTIC_core_42t]
- Kd ([1]; _ is abasic C3 spacer at positions 11 and 16, 5'-HEG, 3'-3' dT, kinetic 43 pM (Table 8)): 176 nM
- Kd ([2]; _ is abasic C3 spacer at positions 11 and 16, 5'-HEG, 3'-3' dT): 0.275 nM

Sequence: GGGNTTGGCNNNGGGNCTGGC [CELTIC_core]
- Kd [4]: 1210 nM
- Kd [5]: 591 µM
- Kd ([1]; kinetic 845 pM (Table 8)): 427 nM
- Kd [2]: 1 nM
- Kd ([3]; negligible signal on Ramos): > 50 nM

Sequence: GGGTTTGGCACCGGGCTGGC [CELTIC_core_12]
- Kd ([1]; _ is abasic C3 spacer at position 16, kinetic 1.15 pM (Table 8)): 98 nM
- Kd ([2]; _ is abasic C3 spacer at position 16): 1.5 nM

Sequence: GGGTTTGGCACGGGCTGGC [CELTIC_core_42]
- Kd ([1]; _ is abasic C3 spacer at positions 11 and 16, 5'-HEG, kinetic 277 pM (Table 8)): 194 nM
- Kd ([2]; _ is abasic C3 spacer at positions 11 and 16, 5'-HEG): 0.772 nM
- Kd ([3]; _ is abasic C3 spacer (positions 11 and 16), 5'-HEG, biotin at 5' or 3' end equivalent): < 50 nM
